Experimental data taken from US8153134 (SCHERING, dated 2012).
Read-outs that look alike come from different tables or passages of the source.

T1: hMDL-1-hIG (human, UniProt Q9NY25 28-188)
T1 construct: Fusion of human MDL-1 with human Ig used in the BIAcore assay; MDL-1 is a type II membrane protein, so the Ig part may stand N-terminal; also called MDL-1-hIg ligand; not shown: human Ig part (hIG)
T1 sequence: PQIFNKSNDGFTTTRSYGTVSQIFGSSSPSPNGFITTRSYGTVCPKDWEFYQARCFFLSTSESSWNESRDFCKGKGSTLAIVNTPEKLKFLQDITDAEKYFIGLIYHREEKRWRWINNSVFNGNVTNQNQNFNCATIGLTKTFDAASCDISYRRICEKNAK

T2: human MDL-1 (human, UniProt Q9NY25 1-188)
T2 sequence: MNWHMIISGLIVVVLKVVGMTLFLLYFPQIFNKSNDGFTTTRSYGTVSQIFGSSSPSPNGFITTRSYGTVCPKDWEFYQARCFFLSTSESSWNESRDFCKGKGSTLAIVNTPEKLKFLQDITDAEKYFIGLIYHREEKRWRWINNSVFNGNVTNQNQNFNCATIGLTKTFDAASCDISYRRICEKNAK


Assays:
hMDL-1-hIG [1] = target: T1, hMDL-1-hIG; experiment: BIAcore SPR; hMDL-1-hIG as capture antigen on the chip, mAb as analyte; apparent Kd
Experimental: (§1) Determining the Equilibrium Dissociation Constant (K_d) for Humanized Anti-Human MDL-1 Antibodies Using BIAcore Technology BIAcore determinations are performed essentially as described at Example 4 of co-pending, commonly assigned U.S. patent application Ser. No. 11/511,635 (filed 29 Aug. 2006). Briefly, ligands (anti-MDL-1-hIg) are immobilized on a BIAcore CM5 sensor chip using standard amine-coupling procedure. Kinetic constants for the various interactions are determined using BIAevaluation software 3.1. The K_d is determined using the calculated dissociation and association rate constants.

hMDL-1-hIG [2] = target: T1, hMDL-1-hIG; experiment: BIAcore SPR; hMDL-1-hIG as capture antigen on the chip, mAb as analyte
Experimental: as §1

human MDL-1 [3] = target: T2, human MDL-1; experiment: cell-based or functional assay
human MDL-1 [4] = target: T2, human MDL-1; experiment: cell-based or functional assay; remark: listed apart in the source
hMDL-1-hIG [5] = target: T1, hMDL-1-hIG; experiment: BIAcore SPR; mAb as capture reagent, hMDL-1-hIG as analyte
Experimental: as §1
(§2) For antibodies DX233, DX239, and DX240, the antibodies were used as the capture reagent and the MDL-1-hIg ligand was used as the analyte. Affinity measurements for DX233, DX239, and DX240 were as follows.

hMDL-1-hIG [6] = target: T1, hMDL-1-hIG; experiment: BIAcore SPR; mAb as capture reagent, hMDL-1-hIG as analyte; apparent Kd
Experimental: as §1, §2

human MDL-1 [7] = target: T2, human MDL-1; experiment: cell-based or functional assay; remark: listed apart in the source
human MDL-1 [8] = target: T2, human MDL-1; experiment: cell-based or functional assay; remark: listed apart in the source

Kd (hMDL-1-hIG [1]) | koff (hMDL-1-hIG [2]) | kon (hMDL-1-hIG [2]) | secreted beta-hexosaminidase, OD (405-570), DT808 mouse mast cells, cross-link (human MDL-1 [3]) | secreted beta-hexosaminidase, OD (405-570), DT808 mouse mast cells, no cross-link (human MDL-1 [3]) | secreted beta-hexosaminidase, OD (405-570), DT808 mouse mast cells, cross-link (human MDL-1 [4]) | secreted beta-hexosaminidase, OD (405-570), DT808 mouse mast cells, no cross-link (human MDL-1 [4]) | koff (hMDL-1-hIG [5]) | kon (hMDL-1-hIG [5]) | Kd (hMDL-1-hIG [6]) | decrease of CD62L staining (MFI) of human neutrophils, isotype control treatment minus anti-hMDL-1 treatment (human MDL-1 [7]) | increase in CD11b surface expression on human neutrophils, Mean Fluorescent Intensity as compared to isotype control treatment (human MDL-1 [8]) | increase in CD66b surface expression on human neutrophils, Mean Fluorescent Intensity as compared to isotype control treatment (human MDL-1 [8]) | Binder
25.2 nM | 0.0016 s⁻¹ | 63000 M⁻¹ s⁻¹ | 3.17 OD (405-570) | 3.32 OD (405-570) |  |  |  |  |  |  |  |  | DX230 (antibody, V domains shown, Rodent anti-human MDL-1 monoclonal antibody from a hybridoma; VL of the kappa subclass; also called anti-MDL-1 antibody clone DX230; ATCC PTA-8373) VH: EVQLVESGGDLVKPGGSLKLSCAASGFAFSNYDMSWVRQTPEKRLEWVAYISGGGGTTYYSDTVKGRFTISRDNAKNTLYLQMSSLKSEDTAMYYCVRHAVYYGKPYWGQGTTLTVSS VL: DIVLTQSPPSLAVSLGQRATVSCRASESVEHYGTGLMQWYQQKPGQPPRLLIYAASNVESGVPARFSGSGSGTDFSLNIHPVEEDDIAMYFCQQSRKVPWTFGGGTKLEIKR
 |  |  | 3.28 OD (405-570) | 3.17 OD (405-570) |  |  |  |  |  |  |  |  | DX297 (antibody, V domains shown) VH: EVQLVESGGDLVKPGGSLKLSCTASGFAFSNYDMSWVRQTPEKRLEWVAYISGGGGTTYYSDTVKGRFTISRDNARNTLYLQMSSLKSEDTAIYYCARHPIYYGKPYWGQGTTLTVSS VL: DIVLTQSPASLAVSLGQRATISCRASESVEHYGTSLMQWYQQKPGQPPRLLIYAASNVESGVPARFSGGGSGTDFSLNIHPVEEDDIAMYFCQQNRKVPWTFGGGTKLEIKR
 |  |  |  |  | 3.21 OD (405-570) | 1.22 OD (405-570) | 0.000147 s⁻¹ | 20000 M⁻¹ s⁻¹ | 8.65 nM | 96.9 MFI | 303 MFI | 90.5 MFI | DX233 (antibody, V domains shown, Rodent anti-human MDL-1 monoclonal antibody from a hybridoma; VL of the kappa subclass; also called anti-MDL-1 antibody clone DX233) VH: EVQMQQSGAELVKPGASVKLSCTASGFNIKDTYMHWVKQRPEQGLEWIGRIDPANGITKSDPKFQGKATITADTSSNTAYLQLNSLTSEDTAVYSCAPYSGNYVWFPYWGQGTLVTVSA VL: DIVMTQSHKFMSTSVGDRVNITCKASQDVGTAVAWYQRKPGKSPQVLIYWASTRHTGVPDRFTGSGSGTDFTLTISNVQSEDLADYFCQQYRSYPLTFGAGTKLELKR
0.247 nM | 6.8e-05 s⁻¹ | 277000 M⁻¹ s⁻¹ | 3.36 OD (405-570) | 3.46 OD (405-570) |  |  |  |  |  | 140 MFI | 349 MFI | 110 MFI | DX244 (antibody, V domains shown, Parental rodent anti-human MDL-1 monoclonal antibody (not the humanized form); VL of the kappa subclass; also called anti-MDL-1 antibody clone DX244; ATCC PTA-8375) VH: QIQLVQSGPELKKPGETVKISCKASGYTFTIYAMNWVKQAPGKGLEWMGWINTDTGEPTYADDFKGRFAFSLETSASTAYLQINNLKNEDMATYFCARSSEVFYDYRFDYWGQGTALTVSS VL: DIQMTQSPSSLSASLGERVSLTCRASQDIGSSLNWLQQEPDGTIKRLIYATSNLDSGVPKRFSGSRSGSDYSLTISSLESEDFVHYYCLQYASSPFTFGSGTKLEIKR
0.207 nM | 7.3e-05 s⁻¹ | 354000 M⁻¹ s⁻¹ | 3.25 OD (405-570) | 2.66 OD (405-570) |  |  |  |  |  |  |  |  | DX241 (antibody, V domains shown, Rodent anti-human MDL-1 monoclonal antibody from a hybridoma; VL of the kappa subclass; also called anti-MDL-1 antibody clone DX241; ATCC PTA-8374) VH: DVKLVESGGGLVKLGGSLKLSCAASGFTFSSYYMSWVRQTPDKRLELVAAINSNGGTTYYPDTVKGRFTISRDNAKNTLYLQMSSLKPEDTALFYCVRDGEFGHYFDYWGQGTTLTVSS VL: SIVMTQTPKFLLVSAGDRVTITCKASQSVNNDVAWYQQKPGQSPKLLIYYASNRYTGVPDRFTGSGYGTDFTFTISTVQAEDLAVYFCQQDYNSPLTFGAGTKLELKR
 |  |  |  |  | 3.14 OD (405-570) | 1 OD (405-570) | 0.000336 s⁻¹ | 10000 M⁻¹ s⁻¹ | 37.9 nM | 142 MFI | 377 MFI | 107 MFI | DX239 (antibody, V domains shown, Parental rodent anti-human MDL-1 monoclonal antibody (not the humanized form); VL of the kappa subclass; also called anti-MDL-1 antibody clone DX239; ATCC PTA-9135) VH: QVQLQQSGAELVRPGTSVKISCKASGYGFNNYWLGWVKQRPGHGLEWIGDIYPGSGNTYYNENFKGRATLTADKSSTTAYMQVSSLTSEDSAVYFCARGKESFAYWGQGTLVTVSA VL: not shown
1.27 nM | 0.000817 s⁻¹ | 644000 M⁻¹ s⁻¹ | 3.23 OD (405-570) | 3.39 OD (405-570) |  |  |  |  |  | 152 MFI | 393 MFI | 109 MFI | DX246 (antibody, V domains shown, Rodent anti-human MDL-1 monoclonal antibody from a hybridoma; VL of the kappa subclass; also called anti-MDL-1 antibody clone DX246; ATCC PTA-8376) VH: QVTLKESGPGILKPSQTLSLTCSFSGFSLSTSGMNVGWIRQPSGKGLEWLAHIWWDDDKYYNPSLKSQLTISKDTSRNQVFLKITSVDTADTATYYCARRAFYGSNYDYYAMDYWGQGTSVTVSS VL: ENVLTQSPAIMSASPGEKVTMTCSVSSSVSYIHWYQQKSSTSPKLWIYDTSKLASGVPGRFSGSGSGNSYSLTISSMEAEDVATYYCFQGSGYPLTFGAGTKLELKR
 |  |  |  |  | 3.25 OD (405-570) | 1.83 OD (405-570) | 0.000325 s⁻¹ | 8000 M⁻¹ s⁻¹ | 43 nM | 114 MFI | 336 MFI | 97 MFI | DX240 (antibody, V domains shown, Rodent anti-human MDL-1 monoclonal antibody from a hybridoma; VL of the kappa subclass; also called anti-MDL-1 antibody clone DX240; ATCC PTA-9136) VH: QVQLLQSGAELVKPGASVKISCKASGYTFTDHAIHWVKQKPEQGLEWIGYISPGDGDIKYNEKFKDKATLTADKSSSIAYMQLNSLTSEDSAVYFCKNFDYDFIFDFWGQGTTLTVSS VL: DIVMSQSPSSLAVSAGETVTMSCKSSQSLLNSRARKNYLAWYQQKPGQSPKLLIYWASTRESGVPDRFTGSGSGTDFTLTISSVRAEDLAVYYCKQSYNLYTFGGGTKLEIKR
